Experimental data from the Human Domainome abundance scans (Beltran et al. 2025).
± gives the uncertainty stated by the source.

B1: Spectrin alpha chain, erythrocytic 1, residues 979 to 1036; numbered along this chain, P02549 (parent)
chain: EQRVMALYDFQARSPREVTMKKGDVLTLLSSINKDWWKVEAADHQGIVPAVYVRRLAH
B2: DNA topoisomerase 3-alpha, residues 812 to 851; numbered along this chain, Q13472 (parent)
chain: TCNCGQEAVLLTVRKEGPNRGRQFFKCNGGSCNFFLWADS

Variants of: B1
Experiment: abundance fitness (aPCA) (normalised: wild type 0, dead -1); higher = more abundant; growth selection in yeast, the domain comes from the species named
Details: Homo sapiens

Abundance fitness, by site and new letter:
H58: P 0.358 ± 0.2 | Y 0.141 ± 0.27
E1: G -0.425 ± 0.088
A6: C -0.048 ± 0.27 | L -0.886 ± 0.12 | Q -0.975 ± 0.2 | Y -0.794 ± 0.31
L56: Q -0.848 ± 0.16 | K -0.417 ± 0.45 | M -0.029 ± 0.31 | V -0.207 ± 0.23
V25: I -0.099 ± 0.21 | E 0.059 ± 0.29 | M -0.425 ± 0.13 | S -0.887 ± 0.34 | A -0.163 ± 0.26
A41: Y -0.448 ± 0.45 | T 0.043 ± 0.15 | G 0.154 ± 0.08 | K 0.033 ± 0.21 | I -0.482 ± 0.35
A57: T -0.022 ± 0.43 | V -0.47 ± 0.23

Variants of: B2
Experiment: as above
Details: Homo sapiens

Abundance fitness of substitutions, site by site:
N33: G -0.072 ± 0.13 | V -0.7 ± 0.11 | W -0.572 ± 0.11 | A -0.12 ± 0.057 | T -0.075 ± 0.079 | S -0.057 ± 0.062 | L -0.892 ± 0.37
G29: V -0.074 ± 0.068 | D 0 ± 0.12 | T -0.371 ± 0.22 | A 0.121 ± 0.075 | P -0.571 ± 0.36 | R -0.093 ± 0.059
R22: S -0.513 ± 0.086 | W -0.629 ± 0.077 | A -0.401 ± 0.13 | G -0.565 ± 0.081 | L -0.322 ± 0.079 | N -0.459 ± 0.36 | T -0.438 ± 0.17 | K 0.007 ± 0.095 | Q -0.623 ± 0.13 | M -0.677 ± 0.2
L36: A 0.028 ± 0.045 | E -0.013 ± 0.066 | S 0.134 ± 0.17 | W -0.134 ± 0.086 | G -0.177 ± 0.054 | R 0.013 ± 0.058 | K 0.189 ± 0.081 | Y -0.265 ± 0.14 | V -0.255 ± 0.09 | M 0.022 ± 0.078 | H -0.22 ± 0.17 | F 0.063 ± 0.35
S31: A -0.072 ± 0.073 | W -0.273 ± 0.11 | M -0.13 ± 0.085 | Q 0.055 ± 0.099 | K 0.112 ± 0.08 | T 0.114 ± 0.11 | H 0.092 ± 0.088 | R 0.065 ± 0.051 | C -0.239 ± 0.076 | G -0.071 ± 0.068 | L -0.176 ± 0.073 | I -0.209 ± 0.27 | D 0.077 ± 0.094
G30: S -0.304 ± 0.069 | Q -0.265 ± 0.071 | L -0.473 ± 0.14 | W -0.287 ± 0.36 | V -0.574 ± 0.12 | A -0.381 ± 0.2
A38: V -0.295 ± 0.13 | P -0.659 ± 0.13 | D -0.371 ± 0.21
F25: K -0.413 ± 0.14 | M -0.149 ± 0.066 | W -0.123 ± 0.084 | V -0.509 ± 0.076 | R -0.412 ± 0.14
W37: L -0.52 ± 0.23 | A -0.477 ± 0.089 | R -0.51 ± 0.085 | P -0.239 ± 0.064 | V -0.19 ± 0.078 | T -0.483 ± 0.13 | G -0.48 ± 0.048 | K -0.29 ± 0.13
K26: S -0.011 ± 0.11 | G -0.004 ± 0.056 | R 0.025 ± 0.12 | L -0.318 ± 0.096 | C -0.13 ± 0.17 | V -0.266 ± 0.063 | M -0.232 ± 0.12 | A -0.001 ± 0.095
N28: R 0.131 ± 0.12 | L -0.195 ± 0.18 | W 0.079 ± 0.2 | A 0.075 ± 0.069 | T -0.043 ± 0.13 | S -0.09 ± 0.047 | I 0.137 ± 0.3 | V -0.136 ± 0.078
C27: E -0.53 ± 0.38 | V -1.09 ± 0.25 | H -0.753 ± 0.35 | M -0.789 ± 0.25 | R -1 ± 0.36 | G -1.19 ± 0.41 | L -0.984 ± 0.19 | T -0.86 ± 0.25 | A -0.44 ± 0.15
D39: E -0.105 ± 0.088 | R -0.838 ± 0.49 | L -0.93 ± 0.15 | P -0.171 ± 0.17 | Q -0.63 ± 0.42 | G -0.227 ± 0.083 | C -0.205 ± 0.14 | M -1.03 ± 0.22
Q23: D 0.021 ± 0.28 | W -0.574 ± 0.14 | T -0.219 ± 0.19 | H 0.03 ± 0.14 | G -0.21 ± 0.053
G21: N -0.208 ± 0.11 | A -0.367 ± 0.083 | R -0.643 ± 0.13 | Q -0.614 ± 0.14 | S -0.469 ± 0.11 | I -0.787 ± 0.28 | V -0.763 ± 0.11 | W -0.89 ± 0.46
F34: K -0.576 ± 0.15 | R -0.374 ± 0.2 | H -0.396 ± 0.22 | L -0.703 ± 0.15 | Q -0.44 ± 0.3 | E -0.626 ± 0.17
F35: Q -0.241 ± 0.09 | P -0.388 ± 0.16 | K -0.014 ± 0.11 | W -0.246 ± 0.11 | E -0.447 ± 0.16 | V -0.352 ± 0.14 | L -0.444 ± 0.076
C32: G -1.07 ± 0.25 | T -0.854 ± 0.26 | S -0.33 ± 0.41 | V -0.977 ± 0.25 | R -0.934 ± 0.26 | P -1.36 ± 0.4
R20: S -0.167 ± 0.049 | G -0.171 ± 0.072 | C -0.549 ± 0.32 | H 0.199 ± 0.27 | P -0.227 ± 0.12 | E -0.039 ± 0.076 | D 0.22 ± 0.2 | Y 0.007 ± 0.099 | W -0.271 ± 0.086
